The values below come from PMC7913460, “Targeting hydroxycinnamoyl CoA: shikimate hydroxycinnamoyl transferase for lignin modification in Brachypodium distachyon” (Biotechnology for Biofuels, 2021).

What is called Km is the concentration of substrate that gives half-maximal velocity. A word on the kcat: it is the number of substrate molecules converted per active site and unit of time at saturation. By kcat/Km is commonly meant the second-order rate constant that governs catalysis at low substrate concentration.

Substrate in data set [1]: O=C(/C=C/c1ccc(O)c(O)c1)O[C@@H]1CC(C(=O)O)=C[C@@H](O)[C@H]1O
As to the kind of experiment: HPLC product assay, reverse HCT reaction. It is filed as biochemical, Arabidopsis thaliana. Conditions: 500 µM CoA, 100 mM sodium phosphate pH 7.5, 500 µM DTT, kcat apparent, substrate tested 20 to 400 µM. The text has this: HPLC product assay, reverse HCT reaction on AtHCT1

Substrate in data set [2]: CC(C)(COP(=O)(O)OP(=O)(O)OC[C@H]1O[C@@H](n2cnc3c(N)ncnc32)[C@H](O)[C@@H]1OP(=O)(O)O)[C@@H](O)C(=O)NCCC(=O)NCCSC(=O)/C=C/c1ccc(O)cc1
The data set is described as follows: HPLC product assay, forward HCT reaction. The settings on record: 500 µM shikimic acid, 100 mM sodium phosphate pH 7.5, 500 µM DTT, kcat apparent. It is filed as biochemical, Arabidopsis thaliana. The text has this: HPLC product assay, forward HCT reaction on AtHCT1

B1: AtHCT1 (Arabidopsis thaliana) (protein)
chain: MKINIRDSTMVRPATETPITNLWNSNVDLVIPRFHTPSVYFYRPTGASNFFDPQVMKEALSKALVPFYPMAGRLKRDDDGRIEIDCNGAGVLFVVADTPSVIDDFGDFAPTLNLRQLIPEVDHSAGIHSFPLLVLQVTFFKCGGASLGVGMQHHAADGFSGLHFINTWSDMARGLDLTIPPFIDRTLLRARDPPQPAFHHVEYQPAPSMKIPLDPSKSGPENTTVSIFKLTRDQLVALKAKSKEDGNTVSYSSYEMLAGHVWRSVGKARGLPNDQETKLYIATDGRSRLRPQLPPGYFGNVIFTATPLAVAGDLLSKPTWYAAGQIHDFLVRMDDNYLRSALDYLEMQPDLSALVRGAHTYKCPNLGITSWVRLPIYDADFGWGRPIFMGPGGIPYEGLSFVLPSPTNDGSLSVAIALQSEHMKLFEKFLFEI
Turning to B1, in data set [1], the Michaelis-Menten constant (Km) turned out to be 225.0 µM, the kcat stood at 17 s⁻¹ and the kcat/Km amounted to 76000 M⁻¹ s⁻¹. In addition, in data set [2], the Km stood at 18.5 µM, the kcat amounted to 17.5 s⁻¹ and the kcat/Km stood at 950000 M⁻¹ s⁻¹.
